In paper PMC8246649 (Biochemistry, 2021):
No end group written: not given here. *: point of attachment. Myristoyl = CCCCCCCCCCCCCC(=O)*

B1: FMNL1 peptide Myr-GNAAGSAEQPAGK-FAM (peptide)
peptide: Myristoyl-GNAAGSAEQPAGK(FAM)
B2: UNC119B, full-length, C-terminal His6 (natural protein)
chain: not shown

target: UNC119A, full-length, C-terminal His6 (human, UniProt Q13432 1-240); assay: fluorescence polarisation

Row | Binder | Kd [nM] | binding result
1 | Myristoyl-GTASSLVSPAGGK(FAM) [NPHP3 peptide Myr-GTASSLVSPAGGK-FAM] | 0.84 | –
2 | Myristoyl-GAAASRRRAK(FAM) [NSMF peptide Myr-GAAASRRRAK-FAM] | – | binds
3 | Myristoyl-GNAAAAKKGK(FAM) [PKA peptide Myr-GNAAAAKKGK-FAM] | – | binds
4 | Myristoyl-GCTVSAEDK(FAM) [GNAI2 peptide Myr-GCTVSAEDK-FAM] | – | binds
5 | Myristoyl-GAGASAEEKHSRK(FAM) [GNAT1 peptide Myr-GAGASAEEKHSRK-FAM] | – | binds
6 | B1 | – | binds
7 | Myristoyl-GGAVSAGEDNDDK(FAM) [PCMTD1 peptide Myr-GGAVSAGEDNDDK-FAM] | 5.25 | –

target: B2; assay: fluorescence polarisation

Row | Binder | Kd [nM] | binding result
8 | Myristoyl-GTASSLVSPAGGK(FAM) [NPHP3 peptide Myr-GTASSLVSPAGGK-FAM] | 0.17 | –
9 | Myristoyl-GAAASRRRAK(FAM) [NSMF peptide Myr-GAAASRRRAK-FAM] | – | binds
10 | Myristoyl-GNAAAAKKGK(FAM) [PKA peptide Myr-GNAAAAKKGK-FAM] | – | binds
11 | Myristoyl-GCTVSAEDK(FAM) [GNAI2 peptide Myr-GCTVSAEDK-FAM] | – | binds
12 | Myristoyl-GAGASAEEKHSRK(FAM) [GNAT1 peptide Myr-GAGASAEEKHSRK-FAM] | – | binds
13 | B1 | – | binds
14 | Myristoyl-GGAVSAGEDNDDK(FAM) [PCMTD1 peptide Myr-GGAVSAGEDNDDK-FAM] | 72.6 | –
15 | GCGCSSHPEDK (not fully specified; N-terminal myristoyl on Gly; FAM on the C-terminal Lys) [LCK peptide Myr-GCGCSSHPEDK-FAM] | 0.37 | –

Target: B1
Assay: fluorescence polarisation

Row | Binder | fold lower affinity than to UNC119A [fold]
16 | B2 | 9.5
